Measured values from PMC7946963, “Phosphorylation regulates the binding of autophagy receptors to FIP200 Claw domain for selective autophagy initiation” (Nature Communications, 2021).

Columns and labels:
Test in all cases: fluorescence polarisation titration
Conditions in all cases: reference: unphosphorylated CCPG1 FIR2 peptide; sites S104
[1] = target: FIP200 (RB1CC1) Claw domain, 1490-1594 (UniProt Q8TDY2)
[2] = target: GABARAPL1 (UniProt Q9H0R8)
[3] = target: GABARAPL2 (UniProt P60520)
[4] = target: LC3A (UniProt Q9H492)
[5] = target: LC3B (UniProt Q9GZQ8)
[6] = target: LC3C (UniProt Q9BXW4)

Measured: binding against the reference

CCPG1 FIR2, 99-113 (from UniProt Q9ULG6) pS104 CCPG1 FIR2 peptide
stronger: all assays above
